This note sets out measurements from patent US20180085455A1 (ISU ABXIS, published 2018).

B1: 472P (antibody, V domains shown)
VH: EVQLLESGGGLVQPGGSLRLSCAASGFTFSDYDMSWVRQAPGKGLEWVSGISYDGGNTYYADSVKGRFTISRDNSKNTLYLQMNSLRAEDTAVYYCARDPSWCLQDLCYYADGMDVWGQGTLVTVSS
VL: QSVLTQPPSASGTPGQRVTISCSGSSSNIGSNSVSWYQQLPGTAPKLLIYADSNRPSGVPDRFSGSKSGTSASLAISGLRSEDEADYYCGSWDYSLSGYVFGGGTKLTVLG
notes: IgG1 (Selexis 085 vector, CHO); also called anti-ErbB3 lead antibody 472P
B2: 451P (antibody, V domains shown)
VH: EVQLLESGGGLVQPGGSLRLSCAASGFTFSDYDMSWVRQAPGKGLEWVSAIYYDSGSIYYADSAKGRFTISRDNSKNTLYLQMNSLRAEDTAVYYCAKDRLFVSDSTFDYWGQGTLVTVSS
VL: B1 VL with S26P, S31N, S35T, A51Y, N54H, Y94A, S97N
notes: IgG1 (Selexis 085 vector, CHO); also called anti-ErbB3 lead antibody 451P
B3: 472M1 (antibody, V domains shown)
VH: B1 VH with D31W, M34L
VL: B1 VL
notes: IgG1 (Selexis 085 vector, CHO)
B4: 472S3 (antibody, V domains shown)
VH: B1 VH with D31W
VL: B1 VL
notes: as for B3
B5: 451M3 (antibody, V domains shown)
VH: B2 VH with D31H, V103A
VL: B1 VL with S26P, S31N, S35T, A51Y, N54H, Y94A, S97N
notes: as for B3
B6: 472S4 (antibody, V domains shown)
VH: B1 VH with D31W, M34I, S35A
VL: B1 VL
notes: as for B3
B7: 472S1 (antibody, V domains shown)
VH: B1 VH with D31W, S35T
VL: B1 VL
notes: as for B3
B8: 451M2 (antibody, V domains shown)
VH: B2 VH with V103A
VL: B1 VL with S26P, S31N, S35T, A51Y, N54H, Y94A, S97N
notes: as for B3
B9: 472S2 (antibody, V domains shown)
VH: B1 VH with D31W, M34L, S35A
VL: B1 VL
notes: as for B3
B10: 451M6 (antibody, V domains shown)
VH: B2 VH with D31H, V103E
VL: B1 VL with S26P, S31N, S35T, A51Y, N54H, Y94A, S97N
notes: as for B3
B11: 451M7 (antibody, V domains shown)
VH: B2 VH with D31Y, V103E
VL: B1 VL with S26P, S31N, S35T, A51Y, N54H, Y94A, S97N
notes: as for B3
B12: 451M5 (antibody, V domains shown)
VH: B2 VH with V103E
VL: B1 VL with S26P, S31N, S35T, A51Y, N54H, Y94A, S97N
notes: as for B3
B13: 451M4 (antibody, V domains shown)
VH: B2 VH with D31Y, V103A
VL: B1 VL with S26P, S31N, S35T, A51Y, N54H, Y94A, S97N
notes: as for B3
B14: 451M1 (antibody, V domains shown)
VH: B2 VH with V103M
VL: B1 VL with S26P, S31N, S35T, A51Y, N54H, Y94A, S97N
notes: as for B3
B15: 442P (antibody, V domains shown)
VH: EVQLLESGGGLVQPGGSLRLSCAASGFTFSDYDMSWVRQAPGKGLEWVSSIYPDSGSTYYADSVQGRFTISRDNSKNTLYLQMNSLRAEDTAVYYCAKDLHMGPEGPFDYWGQGTLVTVSS
VL: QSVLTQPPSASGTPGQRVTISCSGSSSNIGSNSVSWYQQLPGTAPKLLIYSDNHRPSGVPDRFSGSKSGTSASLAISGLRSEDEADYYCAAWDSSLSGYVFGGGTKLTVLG
notes: as for B3
B16: 442M8 (antibody, V domains shown)
VH: B15 VH
VL: B1 VL with A51S, S53N, N54H, G90H, S91A, Y94S, S97Y, G98V, Y99D
notes: as for B3
B17: 442S10 (antibody, V domains shown)
VH: B15 VH with L100R, G103W
VL: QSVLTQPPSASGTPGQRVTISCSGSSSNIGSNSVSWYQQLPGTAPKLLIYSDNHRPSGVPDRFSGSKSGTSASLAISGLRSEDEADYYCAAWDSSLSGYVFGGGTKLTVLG
notes: as for B3
B18: 442S9 (antibody, V domains shown)
VH: B15 VH with L100R, G103W
VL: B1 VL with V34G, S53N, N54H, G90A, S91A, Y94S
notes: as for B3
B19: 442S6 (antibody, V domains shown)
VH: B15 VH with Y59D, L100R, G103W
VL: B1 VL with V34G, S53N, N54W, G90A, S91A, Y94S
notes: as for B3
B20: 442M3 (antibody, V domains shown)
VH: B15 VH with L100R, G103W
VL: B1 VL with V34G, S53N, N54W, G90A, S91A, Y94S
notes: as for B3
B21: 442M5 (antibody, V domains shown)
VH: B15 VH with S50T, Y52D, P53L, T58I
VL: B1 VL with A51S, S53N, N54H, G90H, S91A, Y94S, S97W, Y99D
notes: as for B3
B22: 442S4 (antibody, V domains shown)
VH: B15 VH with Y52E, S55F, T58S, Q65R
VL: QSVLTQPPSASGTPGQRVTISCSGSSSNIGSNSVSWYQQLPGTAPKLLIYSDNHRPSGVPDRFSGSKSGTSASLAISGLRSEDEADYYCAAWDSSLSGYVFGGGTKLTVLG
notes: as for B3
B23: 442M10 (antibody, V domains shown)
VH: B15 VH with Y59D, G103W
VL: B1 VL with S53N, N54F, G90A, S91A, Y94S
notes: as for B3
B24: 442M4 (antibody, V domains shown)
VH: B15 VH with S50T, Y52D, P53L, T58I
VL: B1 VL with A51S, S53N, N54H, G90V, S91G, Y94S, S97Y, Y99H
notes: as for B3
B25: 442S2 (antibody, V domains shown)
VH: B15 VH with Y59D
VL: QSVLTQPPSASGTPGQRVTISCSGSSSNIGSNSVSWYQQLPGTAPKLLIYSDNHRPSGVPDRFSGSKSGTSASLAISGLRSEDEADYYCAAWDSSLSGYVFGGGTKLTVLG
notes: as for B3
B26: 442M11 (antibody, V domains shown)
VH: B15 VH with S50T, Y52E, S55Y, Y59L
VL: B1 VL with A51S, S53N, N54H, G90H, S91A, Y94S, Y99D, V100F
notes: as for B3
B27: 442M7 (antibody, V domains shown)
VH: B15 VH with S50T, Y52E, G66S
VL: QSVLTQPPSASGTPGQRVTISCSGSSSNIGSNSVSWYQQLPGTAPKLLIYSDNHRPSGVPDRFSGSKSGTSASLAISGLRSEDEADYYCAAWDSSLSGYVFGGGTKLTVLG
notes: as for B3

What is called Kd is the concentration at which binding is half-saturated. What is called koff is a measure of how fast the partners let go of each other. A word on the kon: it is the rate constant with which the complex forms.

Numbering of substitutions follows the chain as printed.

One experiment addresses T1, recombinant human ErbB3 protein (R&D systems) (human, UniProt P21860 20-643).
T1 construct: Bought recombinant protein; also called HER3
As to the kind of experiment: BLI (Octet QK384), human ErbB3 immobilized on AR2G sensor, IgG at 12.5-50 nM. As for the experimental part: After activation of carboxyl groups in 20 mM of 1-ethyl-3-(3-dimethylaminopropyl)carbodiimide hydrochloride (EDC) and 40 mM of N-hydroxysulfosuccinimide (sulfo-NHS) solution on an AR2G sensor (ForteBio), 10 μg/mL of human ErbB3 protein solution diluted with 10 mM of sodium acetate (pH 4.0) (ForteBio) was added to immobilize human ErbB3 protein onto the AR2G sensor. The AR2G sensor to which the human ErbB3 protein was immobilized and was treated with 1 M of ethanolamine (ForteBio) to inactivate the remaining unreacted carboxyl groups.
Regarding B1, the Kd came out at 0.284 nM, the koff came out at 0.000508 s⁻¹ and the kon amounted to 1.79e+06 M⁻¹ s⁻¹.
As for B2, the Kd turned out to be 0.0535 nM, the koff came out at 6.33e-05 s⁻¹ and the kon was 1.18e+06 M⁻¹ s⁻¹.
For B3, in that order: 0.0125 nM, 1.74e-05 s⁻¹ and 1.39e+06 M⁻¹ s⁻¹.
As to B4, the Kd was less than 0.001 nM, the koff was 1.43e-07 s⁻¹ and the kon worked out at 522000 M⁻¹ s⁻¹.
Take B5: the Kd was less than 0.001 nM, the koff is 2.3e-07 s⁻¹ and the kon turned out to be 1.87e+06 M⁻¹ s⁻¹.
For B6, in that order: 0.00941 nM, 1.09e-05 s⁻¹ and 1.15e+06 M⁻¹ s⁻¹.
As for B7, the Kd was less than 0.001 nM, the koff stood at 3.33e-07 s⁻¹ and the kon came out at 649000 M⁻¹ s⁻¹.
For B8, in that order: 0.0126 nM, 1.56e-05 s⁻¹ and 1.24e+06 M⁻¹ s⁻¹.
For B9 the same measures were less than 0.001 nM, less than 1e-07 s⁻¹ and 1.07e+06 M⁻¹ s⁻¹.
For B10, in that order: 0.00347 nM, 4.17e-06 s⁻¹ and 1.2e+06 M⁻¹ s⁻¹.
For the molecule B11, the Kd turned out to be 0.00492 nM, the koff worked out at 6.63e-06 s⁻¹ and the kon is 1.35e+06 M⁻¹ s⁻¹.
For B12 the same measures were 0.0217 nM, 3.29e-05 s⁻¹ and 1.52e+06 M⁻¹ s⁻¹.
Turning to B13, the Kd was determined as 0.00612 nM, the koff was determined as 1.23e-05 s⁻¹ and the kon came out at 2.01e+06 M⁻¹ s⁻¹.
Take B14: the Kd came to 0.0248 nM, the koff amounted to 3.08e-05 s⁻¹ and the kon amounted to 1.24e+06 M⁻¹ s⁻¹.
For B15, in that order: 0.283 nM, 0.000352 s⁻¹ and 1.25e+06 M⁻¹ s⁻¹.
With B16, the Kd amounted to 0.00256 nM, the koff is 2.23e-06 s⁻¹ and the kon was found to be 870000 M⁻¹ s⁻¹.
For B17 the same measures were 0.114 nM, 9.29e-05 s⁻¹ and 814000 M⁻¹ s⁻¹.
Consider B18, for which the Kd amounted to 0.0716 nM, the koff is 5.87e-05 s⁻¹ and the kon came to 821000 M⁻¹ s⁻¹.
In the case of B19, the Kd is less than 0.001 nM, the koff was less than 1e-07 s⁻¹ and the kon was found to be 872000 M⁻¹ s⁻¹.
For B20, in that order: 0.0034 nM, 2.62e-06 s⁻¹ and 771000 M⁻¹ s⁻¹.
Regarding B21, the Kd was less than 0.001 nM, the koff is less than 1e-07 s⁻¹ and the kon was found to be 665000 M⁻¹ s⁻¹.
B22: the Kd was 0.0371 nM, the koff was 5.47e-05 s⁻¹ and the kon stood at 1.48e+06 M⁻¹ s⁻¹.
For B23, in that order: less than 0.001 nM, less than 1e-07 s⁻¹ and 471000 M⁻¹ s⁻¹.
For B24 the same measures were less than 0.001 nM, less than 1e-07 s⁻¹ and 573000 M⁻¹ s⁻¹.
For B25, in that order: 0.0711 nM, 8.28e-05 s⁻¹ and 1.17e+06 M⁻¹ s⁻¹.
For the molecule B26, the Kd came to 0.00543 nM, the koff was 8.09e-06 s⁻¹ and the kon turned out to be 1.49e+06 M⁻¹ s⁻¹.
For B27 the same measures were 0.0291 nM, 4.55e-05 s⁻¹ and 1.56e+06 M⁻¹ s⁻¹.

Another experiment has as its target ErbB3 on cancer cells (UniProt P21860 20-1342, limits assumed). Description: cell-based or functional assay.
For the molecule B1, the “Inhibition of ErbB3 phosphorylation, IC50 (HRG-stimulated MCF7 cells)” value (shortened to “Inhibition of ErbB3 phosphorylation”) is 1.45 nM.
As for B3, the “Inhibition of Akt phosphorylation, IC50 (HRG-stimulated MCF7 cells)” value came out at 0.246 nM and the “Inhibition of ErbB3 phosphorylation” value is 0.276 nM.
For B9, in that order: 0.195 nM and 0.148 nM.
Regarding B15, the “Inhibition of ErbB3 phosphorylation” value was determined as 1.05 nM.
